Molecular target: poly (ADP-ribose) polymerase (PARP)

Protein | PARP cleavage (immunoblot with anti-PARP monoclonal antibody C-2-10)
granzyme B-processed ICE LAP-6 (activated) (protein) IGSGGFGDVGALESLRGNADLAYILSMEPCGHCLIINNVNFCRESGLRTRTGSNIDCEKLRRRFSSLHFMVEVKGDLTAKKMVLALLELARQDHGALDCCVVVILSHGCQASHLQFPGAVYGTDGCPVSVEKIVNIFNGTSCPSLGGKPKLFFIQACGGEQKDHGFEVASTSPEDESPGSNPEPDATPFQEGLRTFDQLDAISSLPTPSDIFVSYSTFPGFVSWRDPKSGSWYVETLDDIFEQWAHSEDLQSLLLRVANAVSVKGIYKQMPGCFNFLRKKLFFKTSHHHHHH | Both granzyme B-processed Yama and ICE LAP-6 were active as determined by their ability to cleave PARP
granzyme B-processed Yama (activated) (protein) SGISLDNSYKMDYPEMGLCIIINNKNFHKSTGMTSRSGTDVDAANLRETFRNLKYEVRNKNDLTREEIVELMRDVSKEDHSKRSSFVCVLLSHGEEGIIFGTNGPVDLKKITNFFRGDRCRSLTGKPKLFIIQACRGTELDCGIETDSGVDDDMACHKIPVEADFLYAYSTAPGYYSWRNSKDGSWFIQSLCAMLKQYADKLEFMHILTRVNRKVATEFESFSFDATFHAKKQIPCIVSMLTKELYFYH | Both granzyme B-processed Yama and ICE LAP-6 were active as determined by their ability to cleave PARP

Reference: patent US6890721
